# Target: L7-1F08-A11 (L7-A11, EsR2) (synthetic, UniProt P04483 SEQ:1-207, L55M,H64A,F67Y,F86M,H100C,R104G,P105F,K108Q,L113A,Q116S,L134M,S135Q,H139I,F140Y, …)
# Experiment: EMSA; 5 pmol DNA, 20 mM Tris-HCl pH 8.0, 10 mM EDTA, RT 0.5 h; released by ethametsulfuron dose-dependently, less by chlorsulfuron; no change with atc
# Settings: chain copies: 2
# Method: Five pmol of TetO or control DNA was mixed with the indicated amounts (FIG. 7) of ethametsulfuron repressor protein (L7A11) or BSA control with or without inducer in complex buffer containing 20 mM Tris-HCl (pH8.0) and 10 mM EDTA. The mixture was incubated at room temperature for 0.5 hour before loading onto the gel. The reaction was electrophoresed on a Novex 6% DNA retardation gel (Invitrogen, EC6365BOX) at room temperature, 38 V in 0.5×TBE buffer for about 2 hours. DNA was detected by ethidium bromide staining.
binder,measurement,value
tetO 48 bp (dsDNA) DNA 1: CCTAATTTTTGTTGACACTCTATCATTGATAGAGTTATTTTACCACTC DNA 2: GAGTGGTAAAATAACTCTATCAATGATAGAGTGTCAACAAAAATTAGG,binding result,binds
